Measurements taken from PMC10868842, “Structural basis of the recognition of adeno-associated virus by the neurological system-related receptor carbonic anhydrase IV” (PLOS Pathogens, 2024).
Numbering of substitutions follows the chain as printed. Names and notes keep the numbering of the source.

B1: Mus musculus carbonic anhydrase IV (Car4), amino acids W22 to S277 (receptor)
chain: WCYEIQTKDPRSSCLGPEKWPGACKENQQSPINIVTARTKVNPRLTPFILVGYDQKQQWPIKNNQHTVEMTLGGGACIIGGDLPARYEAVQLHLHWSNGNDNGSEHSIDGRHFAMEMHIVHKKLTSSKEDSKDKFAVLAFMIEVGDKVNKGFQPLVEALPSISKPHSTSTVRESSLQDMLPPSTKMYTYFRYNGSLTTPNCDETVIWTVYKQPIKIHKNQFLEFSKNLYYDEDQKLNMKDNVRPLQPLGKRQVFKS
notes: carbonic anhydrase IV (Car4), Mus musculus, residues 22-277 (W22 to S277); the functional rows use this molecule for Car4; also called wt Car4; truncated Car4 (22-277); not shown: GST, N-terminal, cleaved
B2: Car4 (22-277) E90M (mouse residue changed to its hCar4 counterpart) (receptor, Mus musculus, UniProt Q64444 22-277, looked up)
chain: B1 chain with E69M
notes: carbonic anhydrase IV (Car4), Mus musculus, residues 22-277; also called E90M_(Car4); source: E. coli BL21 (DE3), purified as the wild type; not shown: GST, N-terminal, cleaved
B3: Car4 (22-277) H187E (mouse residue changed to its hCar4 counterpart) (receptor, Mus musculus, UniProt Q64444 22-277, looked up)
chain: B1 chain with H166E
notes: carbonic anhydrase IV (Car4), Mus musculus, residues 22-277; also called H187E_(Car4); source: E. coli BL21 (DE3), purified as the wild type; not shown: GST, N-terminal, cleaved
B4: Car4 (22-277) I70A (receptor, Mus musculus, UniProt Q64444 22-277, looked up)
chain: B1 chain with I49A
notes: carbonic anhydrase IV (Car4), Mus musculus, residues 22-277; also called I70A_(Car4); source: E. coli BL21 (DE3), purified as the wild type; not shown: GST, N-terminal, cleaved
B5: Car4 (22-277) Q79A (receptor, Mus musculus, UniProt Q64444 22-277, looked up)
chain: B1 chain with Q58A
notes: carbonic anhydrase IV (Car4), Mus musculus, residues 22-277; also called Q79A_(Car4); source: E. coli BL21 (DE3), purified as the wild type; not shown: GST, N-terminal, cleaved
B6: Car4 (22-277) T92A (receptor, Mus musculus, UniProt Q64444 22-277, looked up)
chain: B1 chain with T71A
notes: carbonic anhydrase IV (Car4), Mus musculus, residues 22-277; also called T92A_(Car4); source: E. coli BL21 (DE3), purified as the wild type; not shown: GST, N-terminal, cleaved
B7: Car4 (22-277) V72S (mouse residue changed to its hCar4 counterpart) (receptor, Mus musculus, UniProt Q64444 22-277, looked up)
chain: B1 chain with V51S
notes: carbonic anhydrase IV (Car4), Mus musculus, residues 22-277; also called V72S_(Car4); source: E. coli BL21 (DE3), purified as the wild type; not shown: GST, N-terminal, cleaved

target: T1, AAV9P31 capsid (adeno-associated virus 9 variant with the 7-mer WPTSYDA inserted in VP3 VR-VIII) (adeno-associated virus 9, UniProt Q6JC40 1-736, WPTSYDA inserted between Q588 and A589); experiment: SPR; BIAcore 8K; AAV9P31 particles immobilised on a CM5 chip by amide coupling (sodium acetate pH 4.0); WT or mutated Car4 proteins flowed over at 30 ul/min, 25 °C, PBST; regeneration with 10 mM glycine pH 2.0; settings: both partners purified
T1 construct: Assembled icosahedral virus particle carrying a GFP genome; capsids made from a RepCap plasmid usually hold VP1, VP2 and VP3 (surmise); also called AAV9P31 particles; AAV9P31 virion; source: HEK293T, triple-plasmid transfection, purified (iodixanol gradient ultracentrifugation)

Row | Binder | Kd [nM]
1 | B1 | 106
2 | B2 | 32.3
3 | B3 | 0.206
4 | B4 | 743
5 | B5 | 292
6 | B6 | 379
7 | B7 | 60.7

target: T1, AAV9P31 capsid (adeno-associated virus …); experiment: cryo-EM structure; AAV9P31 on the grid, Car4 (W22-S277) added and incubated for 5 minutes; icosahedral reconstruction and block-based reconstruction of the 3-fold axis blocks; settings: both partners purified

Row | Binder | stoichiometry N [Car4 per virion]
8 | B1 | ~3
